Reference: patent US20100166733A1

Target: MCP-1 (known wild type human MCP-1, commercial, R&D #279-MC) (human) (UniProt P13500)
Test: cell-based or functional assay

UniProt P13500, sequence (P13500 24-99): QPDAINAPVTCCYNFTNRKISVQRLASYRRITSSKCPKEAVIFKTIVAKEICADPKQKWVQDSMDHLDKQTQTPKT

## MCP-1-65-Fc variant (MCP-1 splice variant MCP-1-65 fused to mutated N297A human IgG1 Fc) (Fc fusion)
  inhibition of MCP-1-induced THP-1 cell migration (transwell, cells counted by FACS), IC50: 0.4 nM
  inhibition of MCP-1-induced THP-1 cell migration (transwell, cells counted by FACS), percent inhibition: < 90%
